Experiment [1] has as its target integrin αvβ3 on cells (M21 human melanoma cells; human umbilical vein endothelial cells) (human) (UniProt P06756). Put plainly: cell-based or functional assay.
The target of experiment [2] is T1, integrin αvβ3, purified from human placenta (human, UniProt P06756 31-1048; P05106 27-788).
T1 construct: mature; Native heterodimer, immobilized on ELISA plates or on the BIAcore chip; biotinylated in capture lift and capture ELISA screens; also called αvβ3 receptor; vitronectin receptor
Kind of experiment: ELISA titration of Fab on immobilized αvβ3. In general terms: An ELISA detects its analyte on a solid surface through an enzyme-linked reagent.
Experimental: (§1) Just prior to use, the plates were washed two times and were then incubated 1 h at 25° C. with various dilutions of Fab. […] All dilutions and washes were in 50 mM Tris-HCl, pH 7.4, 100 mM NaCl, 2 mM CaCl₂, and 1 mM MgCl₂.

In experiment [3] the target is T1, integrin αvβ3, purified from human …. Kind of experiment: SPR (BIAcore), purified Fab over immobilized αvβ3. Background: Surface plasmon resonance follows binding to a sensor surface in real time, without labels.
Experiment [4] has the same target. Put plainly: SPR (BIAcore), purified Fab over immobilized αvβ3. This is another data set of the same source.
Experimental: The affinities of select variants were further characterized by utilizing surface plasmon resonance (BIAcore) to measure the association and dissociation rates of purified Fab with immobilized αᵥβ₃. […] To obtain association rate constants (kₒₙ), the binding rate at five different Fab concentrations, ranging from 5-40 μg/ml in 50 mM Tris-HCl, pH 7.4, 100 mM NaCl, 2 mM CaCl₂, and 1 mM MgCl₂, was determined at a flow rate of 10 μl/min. Dissociation rate constants (koff) were the average of five measurements obtained by analyzing the dissociation phase at an increased flow rate (40 μl/min). Sensorgrams were analyzed with the BIAevaluation 2.1 program (Pharmacia). Residual Fab was removed after each measurement with 10 mM HCl, 2 mM CaCl₂ and 1 mM MgCl₂.
Another experiment deals with T2, integrin αvβ5 (human, UniProt P06756 31-1048; P18084 24-799).
T2 construct: mature
Kind of experiment: ELISA on coated integrin, goat anti-human IgG-alkaline phosphatase.

Experiment [5] deals with T1, integrin αvβ3, purified from human …. Put plainly: ELISA titration of bacterial lysate Fab on immobilized αvβ3, inflection points.
Experimental: as §1

These results are taken from US20060204492A1 (published 2006).

T1 sequence (P06756 31-1048, form in doubt, chain 1 of 2): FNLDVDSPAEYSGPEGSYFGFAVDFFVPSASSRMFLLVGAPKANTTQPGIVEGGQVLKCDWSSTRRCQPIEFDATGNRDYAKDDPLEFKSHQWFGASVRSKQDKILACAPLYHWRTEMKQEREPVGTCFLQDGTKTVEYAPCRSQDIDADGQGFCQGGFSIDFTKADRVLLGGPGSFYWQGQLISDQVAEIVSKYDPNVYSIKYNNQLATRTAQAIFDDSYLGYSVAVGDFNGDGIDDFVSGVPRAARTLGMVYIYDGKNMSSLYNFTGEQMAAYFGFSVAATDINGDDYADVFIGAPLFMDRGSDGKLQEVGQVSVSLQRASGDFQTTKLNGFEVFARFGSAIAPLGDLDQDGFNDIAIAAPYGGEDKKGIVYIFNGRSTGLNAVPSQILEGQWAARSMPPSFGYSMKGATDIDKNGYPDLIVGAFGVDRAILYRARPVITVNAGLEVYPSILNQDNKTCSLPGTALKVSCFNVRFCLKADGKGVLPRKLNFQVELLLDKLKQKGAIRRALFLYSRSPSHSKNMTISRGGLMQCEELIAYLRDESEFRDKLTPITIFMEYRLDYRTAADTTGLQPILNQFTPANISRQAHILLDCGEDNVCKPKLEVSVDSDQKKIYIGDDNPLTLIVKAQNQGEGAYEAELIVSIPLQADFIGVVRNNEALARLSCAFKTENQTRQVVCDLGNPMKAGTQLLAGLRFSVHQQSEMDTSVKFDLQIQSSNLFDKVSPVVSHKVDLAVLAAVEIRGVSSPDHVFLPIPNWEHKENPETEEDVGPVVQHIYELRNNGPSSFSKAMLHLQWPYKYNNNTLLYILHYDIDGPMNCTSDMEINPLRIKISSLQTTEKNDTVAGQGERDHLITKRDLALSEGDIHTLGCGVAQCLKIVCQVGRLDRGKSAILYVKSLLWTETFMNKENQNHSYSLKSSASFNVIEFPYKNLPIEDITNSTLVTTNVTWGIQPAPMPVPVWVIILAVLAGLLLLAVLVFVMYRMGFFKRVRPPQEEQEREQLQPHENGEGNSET
T1 sequence (P05106 27-788, form in doubt, chain 2 of 2): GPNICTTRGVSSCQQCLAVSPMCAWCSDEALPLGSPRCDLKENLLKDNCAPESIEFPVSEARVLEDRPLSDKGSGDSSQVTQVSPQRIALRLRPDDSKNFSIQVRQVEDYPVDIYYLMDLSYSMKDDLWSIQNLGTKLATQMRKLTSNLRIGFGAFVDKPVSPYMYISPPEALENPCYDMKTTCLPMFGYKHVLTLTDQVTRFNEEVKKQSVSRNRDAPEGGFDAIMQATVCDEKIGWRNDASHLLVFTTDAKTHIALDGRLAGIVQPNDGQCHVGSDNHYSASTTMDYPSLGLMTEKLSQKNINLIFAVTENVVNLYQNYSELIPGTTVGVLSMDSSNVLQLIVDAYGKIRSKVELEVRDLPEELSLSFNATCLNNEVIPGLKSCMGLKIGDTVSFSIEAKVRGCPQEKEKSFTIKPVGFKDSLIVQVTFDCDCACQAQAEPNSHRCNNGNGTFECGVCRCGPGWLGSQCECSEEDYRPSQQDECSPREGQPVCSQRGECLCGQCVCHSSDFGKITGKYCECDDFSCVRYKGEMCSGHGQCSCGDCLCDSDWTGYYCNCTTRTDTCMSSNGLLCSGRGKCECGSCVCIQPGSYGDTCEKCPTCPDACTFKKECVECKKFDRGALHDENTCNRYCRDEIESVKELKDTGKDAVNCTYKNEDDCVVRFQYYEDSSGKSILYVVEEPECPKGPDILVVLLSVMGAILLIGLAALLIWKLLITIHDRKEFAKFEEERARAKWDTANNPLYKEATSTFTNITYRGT
Sequence of integrin αvβ3 on cells (M21 human melanoma cells; human umbilical vein endothelial cells) (human) (P06756 31-1048, chain 1 of 2): as the sequence (P06756 31-1048, form in doubt, chain 1 of 2) above
Sequence of integrin αvβ3 on cells (M21 human melanoma cells; human umbilical vein endothelial cells) (human) (P05106 27-788, chain 2 of 2, further chain): as the sequence (P05106 27-788, form in doubt, chain 2 of 2) above
T2 sequence (P06756 31-1048, chain 1 of 2): as the sequence (P06756 31-1048, form in doubt, chain 1 of 2) above
T2 sequence (P18084 24-799, chain 2 of 2): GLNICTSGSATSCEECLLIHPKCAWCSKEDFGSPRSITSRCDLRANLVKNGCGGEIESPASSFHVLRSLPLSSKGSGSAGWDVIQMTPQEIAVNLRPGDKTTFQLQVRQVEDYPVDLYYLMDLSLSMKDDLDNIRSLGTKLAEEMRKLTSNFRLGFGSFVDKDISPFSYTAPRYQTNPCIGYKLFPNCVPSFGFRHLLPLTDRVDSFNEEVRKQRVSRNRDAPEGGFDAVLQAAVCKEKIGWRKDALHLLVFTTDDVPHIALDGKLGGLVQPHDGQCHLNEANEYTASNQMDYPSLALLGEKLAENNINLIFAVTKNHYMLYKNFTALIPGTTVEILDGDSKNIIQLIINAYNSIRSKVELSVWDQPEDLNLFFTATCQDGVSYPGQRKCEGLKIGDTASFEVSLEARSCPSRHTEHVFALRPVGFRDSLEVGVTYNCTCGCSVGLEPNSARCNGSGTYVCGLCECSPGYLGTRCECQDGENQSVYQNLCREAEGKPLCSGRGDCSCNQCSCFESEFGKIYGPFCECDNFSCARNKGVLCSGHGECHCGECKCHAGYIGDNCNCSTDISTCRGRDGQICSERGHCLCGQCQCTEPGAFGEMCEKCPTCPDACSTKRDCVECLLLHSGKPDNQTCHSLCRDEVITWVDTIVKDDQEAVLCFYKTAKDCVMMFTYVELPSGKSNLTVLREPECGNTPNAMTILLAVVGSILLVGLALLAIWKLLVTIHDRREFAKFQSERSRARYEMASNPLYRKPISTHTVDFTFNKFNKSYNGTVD
Experimental for integrin αvβ5: Antibody binding activity was assessed by ELISA using a goat anti-human IgG-alkaline phosphatase conjugate.

For the molecule monoclonal antibody LM609, in experiment [1], the inhibition of M21 cell adhesion to fibrinogen: inhibitory concentration for 50% maximal adhesion was found to be 50 ng/mL and the inhibition of vitronectin-induced migration of human umbilical vein endothelial cells (transwell), 5 µg/ml antibody was 60%.

B1: LM609 grafted antibody variant G102 (Fab, V domains shown)
VH: QVQLVESGGGVVQPGRSLRLSCAASGFTFSSYDMSWVRQAPGKGLEWVAKVSSGGGSTYYLDTVQGRFTISRDNSKNTLYLQMNSLRAEDTAVYYCARHNYGSFAGWGQGTTVTVSS
VL: EIVLTQSPATLSLSPGERATLSCQASQSISNHLHWYQQRPGQAPRLLIRYRSQSISGIPARFSGSGSGTDFTLTISSLEPEDFAVYYCQQSGSWPHTFGGGTKVEIK
notes: Fab; also called clone G102
Usually Kd stands for the constant that tells how readily two partners part at equilibrium. Low values mean higher affinity, high ones lower affinity. A word on the koff: it is the first-order rate constant of dissociation. As a reminder, the kon is a measure of how fast the partners come together. A lower kon goes with slow association. On to B1, for which, in experiment [2], the “fold enhanced binding over parent LM609 grafted antibody” value (shortened to “fold enhanced binding”) is greater than 3 fold. In addition, the “fold enhanced affinity over LM609 grafted antibody” value in experiment [3] is 2.2 fold. In experiment [4], this molecule came in with a Kd of 12.5 nM, a koff of 0.00201 s⁻¹ and a kon of 161000 M⁻¹ s⁻¹.

B2: Vitaxin (antibody, human IgG1, V domains shown)
VH: QVQLVESGGGVVQPGRSLRLSCAASGFTFSSYDMSWVRQAPGKGLEWVAKVSSGGGSTYYLDTVQGRFTISRDNSKNTLYLQMNSLRAEDTAVYYCARHNYGSFAYWGQGTTVTVSS
VL: EIVLTQSPATLSLSPGERATLSCQASQSISNHLHWYQQRPGQAPRLLIKYRSQSISGIPARFSGSGSGTDFTLTISSLEPEDFAVYYCQQSGSWPHTFGGGTKVEIK
notes: Human IgG1 constant region and human kappa constant region; also called huLM609M13 1135-4; grafted LM609
As for B2, the binding result with integrin αvβ5 was “no binding (tested: over 1.0 mg/ml)”.

B3: LM609 grafted antibody variant Y100 (Fab, V domains shown)
VH: QVQLVESGGGVVQPGRSLRLSCAASGFTFSSYDMSWVRQAPGKGLEWVAKVSSGGGSTYYLDTVQGRFTISRDNSKNTLYLQMNSLRAEDTAVYYCARHNYGSYAYWGQGTTVTVSS
VL: EIVLTQSPATLSLSPGERATLSCQASQSISNHLHWYQQRPGQAPRLLIRYRSQSISGIPARFSGSGSGTDFTLTISSLEPEDFAVYYCQQSGSWPHTFGGGTKVEIK
notes: Fab
Consider B3, for which, in experiment [2], the “fold enhanced binding” value is greater than 3 fold. In experiment [4], this molecule gave an equilibrium dissociation constant (Kd) of 14.3 nM, an off-rate (koff) of 0.00251 s⁻¹ and a kon of 175000 M⁻¹ s⁻¹. Further, in experiment [5], the “fold improved affinity over LM609 grafted antibody” value (“fold improved affinity” for short) was greater than 3 fold.

B4: LM609 grafted antibody variant Y101 (Fab, V domains shown)
VH: QVQLVESGGGVVQPGRSLRLSCAASGFTFSSYDMSWVRQAPGKGLEWVAKVSSGGGSTYYLDTVQGRFTISRDNSKNTLYLQMNSLRAEDTAVYYCARHNYGSFYYWGQGTTVTVSS
VL: EIVLTQSPATLSLSPGERATLSCQASQSISNHLHWYQQRPGQAPRLLIRYRSQSISGIPARFSGSGSGTDFTLTISSLEPEDFAVYYCQQSGSWPHTFGGGTKVEIK
notes: Fab
Consider B4, for which the “fold enhanced binding” value in experiment [2] was greater than 3 fold. The “fold increase in affinity over parent LM609 grafted antibody” value in experiment [3] amounted to 12.5 fold. In experiment [4], this molecule gave an equilibrium dissociation constant (Kd) of 2.2 nM, an off-rate constant (koff) of 0.00048 s⁻¹ and a kon of 218000 M⁻¹ s⁻¹. For the same molecule, the “fold improved affinity” value in experiment [5] was greater than 3 fold.

B5: LM609 grafted antibody variant H97 (Fab, V domains shown)
VH: QVQLVESGGGVVQPGRSLRLSCAASGFTFSSYDMSWVRQAPGKGLEWVAKVSSGGGSTYYLDTVQGRFTISRDNSKNTLYLQMNSLRAEDTAVYYCARHNHGSFAYWGQGTTVTVSS
VL: EIVLTQSPATLSLSPGERATLSCQASQSISNHLHWYQQRPGQAPRLLIRYRSQSISGIPARFSGSGSGTDFTLTISSLEPEDFAVYYCQQSGSWPHTFGGGTKVEIK
notes: Fab
In the case of B5, in experiment [2], the “fold enhanced binding” value is greater than 3 fold. In experiment [3], the “fold slower dissociation than LM609 grafted antibody” value was found to be 1.6 fold. In experiment [4], this molecule came in with a dissociation constant Kd of 13.8 nM, a koff of 0.00303 s⁻¹ and a kon of 220000 M⁻¹ s⁻¹.

B6: LM609 grafted antibody variant S102 (Fab, V domains shown)
VH: QVQLVESGGGVVQPGRSLRLSCAASGFTFSSYDMSWVRQAPGKGLEWVAKVSSGGGSTYYLDTVQGRFTISRDNSKNTLYLQMNSLRAEDTAVYYCARHNYGSFASWGQGTTVTVSS
VL: EIVLTQSPATLSLSPGERATLSCQASQSISNHLHWYQQRPGQAPRLLIRYRSQSISGIPARFSGSGSGTDFTLTISSLEPEDFAVYYCQQSGSWPHTFGGGTKVEIK
notes: Fab; also called clone S102
In the case of B6, the “fold enhanced binding” value in experiment [2] is greater than 3 fold. Further, the “fold higher affinity than LM609 grafted antibody” value in experiment [3] turned out to be 4.6 fold. Moreover, in experiment [4], binding was put at a Kd of 6 nM, the koff was found to be 0.00144 s⁻¹ and the kon worked out at 242000 M⁻¹ s⁻¹. In addition, the “fold improved affinity” value in experiment [5] is greater than 3 fold.
